Laboratory results published in patent US7067713.

Biological target: C1s (Kordia, The Netherlands/Enzyme Research Lab. Inc., USA) (UniProt P09871)
Assay: cell-based or functional assay

UniProt P09871, sequence (P09871 16-688 limits assumed): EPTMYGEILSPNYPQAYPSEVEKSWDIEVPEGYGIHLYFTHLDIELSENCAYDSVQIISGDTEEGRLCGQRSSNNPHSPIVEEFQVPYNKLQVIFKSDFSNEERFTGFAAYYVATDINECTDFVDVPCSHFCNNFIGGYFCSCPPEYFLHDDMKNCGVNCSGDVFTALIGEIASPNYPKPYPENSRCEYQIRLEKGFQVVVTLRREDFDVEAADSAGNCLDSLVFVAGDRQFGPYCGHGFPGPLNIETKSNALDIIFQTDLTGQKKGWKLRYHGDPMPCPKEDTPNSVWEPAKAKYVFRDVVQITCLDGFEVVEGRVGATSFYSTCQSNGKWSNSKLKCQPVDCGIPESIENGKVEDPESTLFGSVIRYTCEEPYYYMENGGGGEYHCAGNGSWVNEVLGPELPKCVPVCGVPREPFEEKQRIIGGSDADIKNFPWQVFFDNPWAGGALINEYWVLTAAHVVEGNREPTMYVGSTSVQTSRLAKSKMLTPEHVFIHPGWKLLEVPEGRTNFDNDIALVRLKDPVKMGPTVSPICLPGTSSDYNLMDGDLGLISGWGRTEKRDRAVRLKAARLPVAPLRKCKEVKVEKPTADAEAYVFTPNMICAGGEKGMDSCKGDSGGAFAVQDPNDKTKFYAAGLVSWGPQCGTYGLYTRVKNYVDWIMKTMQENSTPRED

Substance: Cetor (C1 inhibitor purified from pooled human plasma, CLB, The Netherlands) (from UniProt P05155 23-500)
- functionality index (F.I.): ratio between functionally active C1 inhibitor (C1s inhibition test) and total C1 inhibitor antigen: 1.07

Substance: recombinant human C1 inhibitor purified from milk of transgenic rabbit line 2972q (from UniProt P05155 23-500)
- functionality index (F.I.): ratio between functionally active C1 inhibitor (C1s inhibition test) and total C1 inhibitor antigen: 1.07

Substance: recombinant human C1 inhibitor purified from milk of transgenic rabbit line 2972p (from UniProt P05155 23-500)
- functionality index (F.I.): ratio between functionally active C1 inhibitor (C1s inhibition test) and total C1 inhibitor antigen: 1.15

Substance: recombinant human C1 inhibitor purified from milk of transgenic rabbit line 2977q (from UniProt P05155 23-500)
- functionality index (F.I.): ratio between functionally active C1 inhibitor (C1s inhibition test) and total C1 inhibitor antigen: 0.91
